Measurements from the supplement of paper PMC7877785.
± gives the uncertainty stated by the source.

Assay: self-splicing fitness, log relative to wild type (ln ratio); higher = more splicing; Tetrahymena group I intron in knt gene, E. coli kanamycin selection, DiMSum; sequences stand for … in CUCUCU…GGAGGGAAAAGUUAUCAGGCAUGCACCUGGUAGCUAGUCUUUAAACCAAUAGAUUGCAUCGGUUUAAAAGGCAAGACCGUCAAAUUGCGGGAAAGGGGUCAACAGCCGUUCAGUACCAAGUCUCAGGGGAAACUUUGAGAUGGCCUUGCAAAGGGUAUGGUAAUAAGCUGACGGACAUGGUCCUAACCACGCAGCCAAGUCCUAAGUCAACAGAUCUUCUGUUGAUAUGGAUGCAGUUCACAGACUAAAUGUCGGUCGGGGAAGAUGUAUUCUUCUCAUAAGAUAUAGUCGGACCUCUCCUUAAUGGGAGCUAGCGGAUGAAGUGAUGCAACACUGGAGCCGCUGGGAACUAAUUUGUAUGCGAAAGUAUAUUGAUUAGUUUUGGAGUACUCGUGGUCG
How it was run: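 A randomised library covering all eight P1ex-region intron nucleotides was built with the intron in the knt kanamycin-resistance gene on pET-22b(+) and held in E. coli BL21(DE3). Cells were grown overnight at 37°C or 30°C on LB agar, with or without 25 μg/mL kanamycin, plus 100 μg/mL carbenicillin, 50 μM IPTG and 0.2% rhamnose, and pooled colonies were amplicon-sequenced on an Illumina HiSeq 2500. DiMSum fitness is the error-weighted combination of wild-type-normalised replicate fold changes, kanamycin versus none.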

Sequence | self-splicing fitness (ln) (30 °C) | self-splicing fitness (ln) (37 °C)
ACGAAGCAAUAUUACGCAGU | -3.29 ± 0.17 | -2.5 ± 0.2
ACGAAGCAAUAUUACGCCCU | -0.468 ± 0.1 | 0.19 ± 0.12
ACGAAGCAAUAUUACGCCUA | -1.93 ± 0.15 | -1.1 ± 0.12
ACGAAGCAAUAUUACGCGAA | -2.07 ± 0.1 | -0.608 ± 0.097
ACGAAGCAAUAUUACGCUUA | -1.81 ± 0.087 | -0.374 ± 0.083
ACGAAGCAAUAUUACGCUUG | -1.4 ± 0.086 | -0.259 ± 0.098
ACGAAGCAAUAUUACGGACC | -0.399 ± 0.17 | -0.661 ± 0.26
ACGAAGCAAUAUUACGGAGG | -2.97 ± 0.16 | -1.69 ± 0.14
ACGAAGCAAUAUUACGGAUC | -3.59 ± 0.12 | -1.47 ± 0.096
ACGAAGCAAUAUUACGGCCC | -1.25 ± 0.2 | 0.0496 ± 0.26
ACGAAGCAAUAUUACGGGUA | -1.72 ± 0.25 | -2.08 ± 0.17
ACGAAGCAAUAUUACGGGUC | -4.49 ± 0.29 | -2.34 ± 0.23
ACGAAGCAAUAUUACGUGGU | -3.5 ± 0.16 | -2.95 ± 0.15
ACGAAGCAAUAUUACGUUAU | -3.54 ± 0.13 | -1.1 ± 0.1
ACGCAGCAAUAUUACGAAAU | -2.55 ± 0.13 | -1.7 ± 0.15
ACGCAGCAAUAUUACGAACU | -0.619 ± 0.062 | -0.501 ± 0.081
ACGCAGCAAUAUUACGAAUA |  | -2.19 ± 0.23
ACGCAGCAAUAUUACGACGA | -0.25 ± 0.1 | 0.113 ± 0.12
ACGCAGCAAUAUUACGACGC | 0.036 ± 0.062 | 0.169 ± 0.082
ACGCAGCAAUAUUACGACGG | -0.871 ± 0.051 | -0.191 ± 0.073
ACGCAGCAAUAUUACGACGU | -3.11 ± 0.1 | -0.828 ± 0.097
ACGCAGCAAUAUUACGAGAG | -3.3 ± 0.11 | -1.78 ± 0.1
ACGCAGCAAUAUUACGAGCG | -1.54 ± 0.083 | -0.23 ± 0.1
ACGCAGCAAUAUUACGAGGA | -2.8 ± 0.16 | -2.26 ± 0.17
ACGCAGCAAUAUUACGAUCC | -2.24 ± 0.15 | -1.09 ± 0.17

Sequence | self-splicing fitness (ln) (30 °C) | self-splicing fitness (ln) (37 °C)
ACGCAGCAAUAUUACGAUCG | -0.15 ± 0.049 | 0.252 ± 0.071
ACGCAGCAAUAUUACGAUGC | -3.44 ± 0.27 | -1.56 ± 0.21
ACGCAGCAAUAUUACGCAAU | -1.76 ± 0.11 | -1.85 ± 0.15
ACGCAGCAAUAUUACGCCAG | -2.82 ± 0.22 | -2.07 ± 0.28
ACGCAGCAAUAUUACGCCGU | -3.33 ± 0.2 | -2.74 ± 0.27
ACGCAGCAAUAUUACGCUCC |  | -0.96 ± 0.18
ACGCAGCAAUAUUACGGAAA | -2.7 ± 0.33 | -0.506 ± 0.21
ACGCAGCAAUAUUACGGACC | -1.95 ± 0.15 | 0.559 ± 0.18
ACGCAGCAAUAUUACGGAUC | -1.86 ± 0.093 | -0.813 ± 0.13
ACGCAGCAAUAUUACGGCAA | -0.804 ± 0.078 | -0.421 ± 0.084
ACGCAGCAAUAUUACGGCAC | -0.763 ± 0.077 | -0.602 ± 0.11
ACGCAGCAAUAUUACGGCUC | -0.489 ± 0.055 | -0.0273 ± 0.082
ACGCAGCAAUAUUACGGGCC | -1.28 ± 0.091 | -0.893 ± 0.12
ACGCAGCAAUAUUACGUCCA | -1.28 ± 0.11 | -1.13 ± 0.1
ACGGAGCAAUAUUACGAAAG | -3.06 ± 0.31 | 
ACGGAGCAAUAUUACGAGUA | -2.03 ± 0.41 | -1.94 ± 0.33
ACGGAGCAAUAUUACGAUCA | -2.77 ± 0.37 | -1.53 ± 0.24
ACGGAGCAAUAUUACGAUUA | -2.6 ± 0.25 | -2.23 ± 0.29
ACGGAGCAAUAUUACGCAAA | -2.73 ± 0.25 | -1.58 ± 0.22
ACGGAGCAAUAUUACGCACU | -3.4 ± 0.34 | -1.32 ± 0.23
ACGGAGCAAUAUUACGCGAU |  | -1.2 ± 0.17
ACGGAGCAAUAUUACGCGGA | -3.41 ± 0.37 | -1.54 ± 0.26
ACGGAGCAAUAUUACGCGUA | -2.62 ± 0.12 | -1.32 ± 0.11
ACGGAGCAAUAUUACGGAAC | -3.05 ± 0.27 | -3.62 ± 0.47
ACGGAGCAAUAUUACGGACU | -2.21 ± 0.15 | -1.84 ± 0.16

Sequence | self-splicing fitness (ln) (30 °C) | self-splicing fitness (ln) (37 °C)
ACGGAGCAAUAUUACGGCGA | -2.01 ± 0.13 | -1.83 ± 0.15
ACGGAGCAAUAUUACGGGAG | -3.09 ± 0.37 | -1.65 ± 0.24
ACGGAGCAAUAUUACGGUAU | -4.48 ± 0.25 | -2.58 ± 0.2
ACGGAGCAAUAUUACGGUCU | -3.07 ± 0.21 | -2.44 ± 0.26
ACGGAGCAAUAUUACGGUUU | -3.1 ± 0.15 | -3.31 ± 0.28
ACGGAGCAAUAUUACGUAUG | -3.6 ± 0.2 | -2.81 ± 0.32
ACGGAGCAAUAUUACGUCUU | -2.7 ± 0.35 | -2.06 ± 0.5
ACGGAGCAAUAUUACGUGAU | -3.47 ± 0.19 | -1.32 ± 0.2
ACGUAGCAAUAUUACGAACG | -1 ± 0.082 | -0.927 ± 0.12
ACGUAGCAAUAUUACGAAUG | -2.89 ± 0.13 | -1.53 ± 0.12
ACGUAGCAAUAUUACGACAA | -0.894 ± 0.071 | -0.495 ± 0.084
ACGUAGCAAUAUUACGACAU | -0.126 ± 0.012 | 0.0543 ± 0.032
ACGUAGCAAUAUUACGACUA | -0.558 ± 0.15 | 0.529 ± 0.18
ACGUAGCAAUAUUACGAGCA | -0.664 ± 0.2 | -1.82 ± 0.19
ACGUAGCAAUAUUACGAGUG | -2.54 ± 0.2 | -1.43 ± 0.15
ACGUAGCAAUAUUACGAUGC | -3.24 ± 0.22 | -1.51 ± 0.22
ACGUAGCAAUAUUACGAUUA | -0.625 ± 0.12 | -0.514 ± 0.11
ACGUAGCAAUAUUACGCCAU | -3.02 ± 0.19 | -2.55 ± 0.24
ACGUAGCAAUAUUACGCCGA | -1.34 ± 0.23 | -0.566 ± 0.18
ACGUAGCAAUAUUACGCCGG | -1.28 ± 0.11 | -0.915 ± 0.17
ACGUAGCAAUAUUACGCGGC | -3.01 ± 0.22 | -2.47 ± 0.42
ACGUAGCAAUAUUACGCGUC | -1.53 ± 0.22 | -1.97 ± 0.35
ACGUAGCAAUAUUACGGGAG | -3.63 ± 0.17 | -2.28 ± 0.17
ACGUAGCAAUAUUACGGGGU | -4.31 ± 0.3 | -2.51 ± 0.18
ACGUAGCAAUAUUACGGUCA | -0.681 ± 0.16 | 0.577 ± 0.17

Sequence | self-splicing fitness (ln) (30 °C) | self-splicing fitness (ln) (37 °C)
ACGUAGCAAUAUUACGUAGA | -3.58 ± 0.42 | -2.86 ± 0.41
ACGUAGCAAUAUUACGUCAC |  | -1.67 ± 0.4
ACGUAGCAAUAUUACGUCUA | -0.802 ± 0.27 | -1.22 ± 0.18
ACGUAGCAAUAUUACGUGUU | -3.73 ± 0.13 | -2.37 ± 0.13
ACGUAGCAAUAUUACGUUGC | -3.35 ± 0.24 | -1.68 ± 0.22
ACUAAGCAAUAUUACGAAAU | -2.67 ± 0.16 | -1.22 ± 0.17
ACUAAGCAAUAUUACGAACU | -0.447 ± 0.083 | 0.532 ± 0.1
ACUAAGCAAUAUUACGACAA | -1.63 ± 0.079 | -0.52 ± 0.1
ACUAAGCAAUAUUACGAGAC | -2.89 ± 0.28 | -3.24 ± 0.35
ACUAAGCAAUAUUACGAGAG | -3.17 ± 0.13 | -2.52 ± 0.15
ACUAAGCAAUAUUACGAGUC | -3.83 ± 0.42 | -2.73 ± 0.2
ACUAAGCAAUAUUACGAUAC | -2.39 ± 0.21 | -1.29 ± 0.22
ACUAAGCAAUAUUACGAUCG | -0.981 ± 0.15 | 0.89 ± 0.18
ACUAAGCAAUAUUACGCCAC | -2.45 ± 0.38 | 
ACUAAGCAAUAUUACGCGCA | -0.252 ± 0.067 | -0.518 ± 0.085
ACUAAGCAAUAUUACGCGCC | 0.0442 ± 0.11 | -0.687 ± 0.14
ACUAAGCAAUAUUACGCUAA | -3.83 ± 0.43 | -1.92 ± 0.38
ACUAAGCAAUAUUACGCUCU | -0.0344 ± 0.097 | -0.566 ± 0.1
ACUAAGCAAUAUUACGCUUU | -2.34 ± 0.17 | -1.97 ± 0.18
ACUAAGCAAUAUUACGGACU | 0.14 ± 0.054 | 0.436 ± 0.076
ACUAAGCAAUAUUACGGGAG | -2.5 ± 0.11 | -1.88 ± 0.14
ACUAAGCAAUAUUACGGGCU | -0.833 ± 0.089 | -0.736 ± 0.083
